The values that follow are results of earlier work, collected in paper PMC4484741.

Like-named read-outs stand apart in the source and are kept apart here.

Data set [1] concerns the target GLP-1 receptor (UniProt P43220).
Data set [2] shares this target. This is another data set of the same source.

Sequence of GLP-1 receptor (P43220 24-463): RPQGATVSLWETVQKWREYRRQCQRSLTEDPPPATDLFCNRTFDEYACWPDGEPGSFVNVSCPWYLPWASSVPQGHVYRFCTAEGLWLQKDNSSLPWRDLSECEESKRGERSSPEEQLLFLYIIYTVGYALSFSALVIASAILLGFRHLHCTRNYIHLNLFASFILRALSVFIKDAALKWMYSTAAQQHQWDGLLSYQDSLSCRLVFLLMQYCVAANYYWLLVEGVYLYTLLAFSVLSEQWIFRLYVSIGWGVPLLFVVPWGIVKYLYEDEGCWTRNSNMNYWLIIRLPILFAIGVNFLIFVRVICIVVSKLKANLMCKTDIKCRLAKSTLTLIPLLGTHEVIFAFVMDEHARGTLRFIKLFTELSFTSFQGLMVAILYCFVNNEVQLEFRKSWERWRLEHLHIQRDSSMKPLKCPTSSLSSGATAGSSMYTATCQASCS
Sequence of Exendin (9-39) 9-39 (P26349 56-86): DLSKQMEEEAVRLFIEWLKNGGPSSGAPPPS
Sequence of Exendin-4 (P26349 48-86): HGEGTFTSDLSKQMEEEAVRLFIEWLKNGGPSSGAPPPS

Broadly, the Kd is the free concentration of one partner at which half of the binding sites on the other are occupied at equilibrium, for simple one-to-one binding. On to “Exendin (9-39) 9-39 (from UniProt P26349)”, for which the Kd with GLP-1 receptor [1] was 3 nM.

Turning to Exendin-4 (from UniProt P26349), the Kd with GLP-1 receptor [2] was 0.14 nM.
